Assay in all cases: ITC
On the technique in general: ITC needs no label: the signal is the heat of the interaction.

The target of one data set is T1, mRBM20(513-621) (Mus musculus, UniProt Q3UQS8 513-621).
T1 sequence: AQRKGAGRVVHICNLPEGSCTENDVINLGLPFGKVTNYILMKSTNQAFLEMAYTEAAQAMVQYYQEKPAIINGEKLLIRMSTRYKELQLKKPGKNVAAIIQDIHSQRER

The next data set deals with T2, mRBM20(513-621) R595M (Mus musculus, UniProt Q3UQS8 513-621, R595M).
T2 sequence: T1 sequence with R83M

The target of a further data set is T3, mRBM20(513-621) V537I (Mus musculus, UniProt Q3UQS8 513-621, V537I).
T3 sequence: T1 sequence with V25I

The next data set has as its target T4, mRBM20(513-621) F560A (Mus musculus, UniProt Q3UQS8 513-621, F560A).
T4 sequence: T1 sequence with F48A

Another data set concerns the target T5, mRBM20(513-621) H523A (Mus musculus, UniProt Q3UQS8 513-621, H523A).
T5 sequence: T1 sequence with H11A

For a further data set, the target named is T6, mRBM20(513-621) Q558A (Mus musculus, UniProt Q3UQS8 513-621, Q558A).
T6 sequence: T1 sequence with Q46A

For the next data set, the target named is T7, mRBM20(513-621) R591M (Mus musculus, UniProt Q3UQS8 513-621, R591M).
T7 sequence: T1 sequence with R79M

Data set [1] concerns the target T8, mRBM20(513-609) delta-alpha3 (Mus musculus, UniProt Q3UQS8 513-609).
T8 sequence: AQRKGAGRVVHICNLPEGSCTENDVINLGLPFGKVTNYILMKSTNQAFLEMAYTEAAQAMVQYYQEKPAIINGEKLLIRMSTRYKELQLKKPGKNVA

For the next data set, the target named is T9, mRBM20(513-621) Y596A (Mus musculus, UniProt Q3UQS8 513-621, Y596A).
T9 sequence: T1 sequence with Y84A

The next data set has as its target T10, mRBM20(513-621) Q577A (Mus musculus, UniProt Q3UQS8 513-621, Q577A).
T10 sequence: T1 sequence with Q65A

The next data set addresses T11, mRBM20(513-649) +RS (Mus musculus, UniProt Q3UQS8 513-649).
T11 sequence: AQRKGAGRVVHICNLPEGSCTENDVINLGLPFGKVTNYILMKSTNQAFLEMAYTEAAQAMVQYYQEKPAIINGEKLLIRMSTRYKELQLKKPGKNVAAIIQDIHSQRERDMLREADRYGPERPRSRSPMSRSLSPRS

In a further data set the target is T12, mRBM20(513-621) N526A (Mus musculus, UniProt Q3UQS8 513-621, N526A).
T12 sequence: T1 sequence with N14A

Residue numbers refer to the chain shown, from its start.

Take AUUUUA (ssRNA): in the data set with mRBM20(513-621), binding was put at a Kd of 140 ± 30 µM.
As to AUCUUA (ssRNA), the Kd with mRBM20(513-621) turned out to be 5.7 ± 0.2 µM; in the data set with mRBM20(513-621) R595M, 29.3 ± 0.3 µM; in the data set with mRBM20(513-621) V537I, 10.3 ± 0.7 µM; with mRBM20(513-621) F560A it was 156 ± 6 µM; with mRBM20(513-621) H523A it was 67 ± 12 µM; in the data set with mRBM20(513-621) Q558A it was 3.4 ± 0.7 µM. The Kd worked out at 12.4 ± 0.6 µM in the data set with mRBM20(513-621) R591M; 43 ± 1 µM in data set [1]; 74 ± 13 µM with mRBM20(513-621) Y596A; 6.6 ± 0.8 µM in the data set with mRBM20(513-621) Q577A; 4.3 ± 0.4 µM with mRBM20(513-649) +RS; 9 ± 1 µM in the data set with mRBM20(513-621) N526A.
ACCUUA (ssRNA): the Kd in the data set with mRBM20(513-621) was 13 ± 2 µM.
In the data set with mRBM20(513-621), AUCCUA (ssRNA) gave a Kd of 210 ± 3 µM.
For the molecule GGGACCUGGUCUUUCCAGGUCCC (structured_RNA) [vIRES-SL], in the data set with mRBM20(513-621), binding was put at a Kd of 8 ± 1 µM.
On the same count and under the same terms, next, AUCUUG (ssRNA): 4.8 ± 0.1 µM; AUCUCA (ssRNA): 95 ± 1 µM; GUCUUA (ssRNA): 4 ± 0.1 µM.

The Kd is the free concentration of one partner at which half of the binding sites on the other are occupied at equilibrium, for simple one-to-one binding. A low value points to a tighter complex.

The record behind these values is PMC7192616.
